In publication PMC9482650, “Quantitative fragmentomics allow affinity mapping of interactomes” (Nature Communications, 2022):

Key:
Experiment in all cases: holdup assay
Design in all cases: key: below the threshold = too weak to quantify, mostly under pKd 3.1 to 4
CARD11, Q9BXL7 = biological target: T1, CARD11, Q9BXL7
T1 sequence (Q9BXL7 662-765, limits assumed, looked up): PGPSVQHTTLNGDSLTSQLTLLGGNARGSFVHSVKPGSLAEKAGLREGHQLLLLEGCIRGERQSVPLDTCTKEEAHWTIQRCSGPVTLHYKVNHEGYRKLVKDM

DFNB31_3, Q9P202 = biological target: T2, DFNB31_3, Q9P202
T2 sequence (Q9P202 811-907, limits assumed, looked up): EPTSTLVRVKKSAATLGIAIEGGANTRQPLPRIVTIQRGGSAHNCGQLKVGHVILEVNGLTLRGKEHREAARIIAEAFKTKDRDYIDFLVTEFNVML

DLG1_3, Q12959 = biological target: DLG1_3, Q12959
Chain of DLG1_3, Q12959 (Q12959 457-571): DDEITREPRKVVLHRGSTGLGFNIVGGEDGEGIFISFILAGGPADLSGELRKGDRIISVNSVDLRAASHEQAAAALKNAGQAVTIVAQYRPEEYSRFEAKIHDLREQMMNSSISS

DLG2_3, Q15700 = biological target: DLG2_3, Q15700
FRMPD2_3, Q68DX3 = biological target: FRMPD2_3, Q68DX3
Chain of FRMPD2_3, Q68DX3 (Q68DX3 1073-1166): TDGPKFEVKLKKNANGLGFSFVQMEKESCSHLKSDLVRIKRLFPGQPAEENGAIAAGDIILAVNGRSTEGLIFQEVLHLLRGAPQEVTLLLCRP

GOPC, Q9HD26 = biological target: GOPC, Q9HD26
GORASP1, Q9BQQ3 = biological target: GORASP1, Q9BQQ3
Chain of GORASP1, Q9BQQ3 (Q9BQQ3 1-208): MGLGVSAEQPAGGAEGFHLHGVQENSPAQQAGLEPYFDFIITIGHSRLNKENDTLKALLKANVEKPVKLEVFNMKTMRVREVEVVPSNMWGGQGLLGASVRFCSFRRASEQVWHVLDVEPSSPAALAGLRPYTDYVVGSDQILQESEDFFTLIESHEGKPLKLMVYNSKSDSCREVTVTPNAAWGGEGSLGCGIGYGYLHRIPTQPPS

GRASP, Q7Z6J2 = biological target: GRASP, Q7Z6J2
Chain of GRASP, Q7Z6J2 (Q7Z6J2 96-193): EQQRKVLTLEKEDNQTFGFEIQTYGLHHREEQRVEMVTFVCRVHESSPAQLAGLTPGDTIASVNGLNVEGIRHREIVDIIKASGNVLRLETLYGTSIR

GRIP1_4, Q9Y3R0 = biological target: T3, GRIP1_4, Q9Y3R0
T3 sequence (Q9Y3R0 467-571, limits assumed, looked up): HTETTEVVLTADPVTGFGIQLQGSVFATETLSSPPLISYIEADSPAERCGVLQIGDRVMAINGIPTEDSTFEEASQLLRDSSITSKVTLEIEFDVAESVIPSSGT

GRIP1_7, Q9Y3R0 = biological target: T4, GRIP1_7, Q9Y3R0
T4 sequence (Q9Y3R0 999-1096, limits assumed, looked up): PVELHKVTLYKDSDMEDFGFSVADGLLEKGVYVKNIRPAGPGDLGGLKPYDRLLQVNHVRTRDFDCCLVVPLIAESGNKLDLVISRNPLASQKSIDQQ

GRIP2_4, Q9C0E4 = biological target: GRIP2_4, Q9C0E4
Chain of GRIP2_4, Q9C0E4 (Q9C0E4 446-548): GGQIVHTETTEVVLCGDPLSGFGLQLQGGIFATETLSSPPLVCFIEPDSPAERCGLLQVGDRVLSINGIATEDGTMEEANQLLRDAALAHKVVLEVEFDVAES

GRIP2_6, Q9C0E4 = biological target: GRIP2_6, Q9C0E4
Chain of GRIP2_6, Q9C0E4 (Q9C0E4 648-740): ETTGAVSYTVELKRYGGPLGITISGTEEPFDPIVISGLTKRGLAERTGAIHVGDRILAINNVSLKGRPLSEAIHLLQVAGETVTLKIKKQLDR

HTRA3, P83110 = biological target: T5, HTRA3, P83110
T5 sequence (P83110 354-453, limits assumed, looked up): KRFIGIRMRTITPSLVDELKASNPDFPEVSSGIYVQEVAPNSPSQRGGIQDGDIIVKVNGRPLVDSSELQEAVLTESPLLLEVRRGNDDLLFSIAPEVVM

IL16_3, Q14005 = biological target: IL16_3, Q14005
Chain of IL16_3, Q14005 (Q14005 1107-1207): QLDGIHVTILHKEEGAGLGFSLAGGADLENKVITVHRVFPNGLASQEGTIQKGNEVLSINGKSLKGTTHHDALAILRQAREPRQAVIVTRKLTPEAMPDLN

Inadl_10, Q8NI35 = biological target: Inadl_10, Q8NI35
Chain of Inadl_10, Q8NI35 (Q8NI35 1673-1763): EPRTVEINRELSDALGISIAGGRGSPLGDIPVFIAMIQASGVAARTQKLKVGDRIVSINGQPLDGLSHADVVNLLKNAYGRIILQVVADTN

Inadl_2, Q8NI35 = biological target: Inadl_2, Q8NI35
Chain of Inadl_2, Q8NI35 (Q8NI35 238-335): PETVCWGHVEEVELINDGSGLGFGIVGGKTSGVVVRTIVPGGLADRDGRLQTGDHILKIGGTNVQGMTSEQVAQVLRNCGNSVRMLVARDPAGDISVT

Inadl_6, Q8NI35 = biological target: Inadl_6, Q8NI35
Chain of Inadl_6, Q8NI35 (Q8NI35 1058-1167): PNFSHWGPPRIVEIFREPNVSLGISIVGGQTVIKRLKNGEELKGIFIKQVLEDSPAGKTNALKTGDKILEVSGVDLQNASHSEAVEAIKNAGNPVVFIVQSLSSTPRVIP

LRRC7, Q96NW7 = biological target: T6, LRRC7, Q96NW7
T6 sequence (Q96NW7 1440-1537, limits assumed, looked up): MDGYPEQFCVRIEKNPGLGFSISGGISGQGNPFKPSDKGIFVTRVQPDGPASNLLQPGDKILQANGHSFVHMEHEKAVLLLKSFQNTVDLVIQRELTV

MAGI3_2, Q5TCQ9 = biological target: MAGI3_2, Q5TCQ9
Chain of MAGI3_2, Q5TCQ9 (Q5TCQ9 398-503): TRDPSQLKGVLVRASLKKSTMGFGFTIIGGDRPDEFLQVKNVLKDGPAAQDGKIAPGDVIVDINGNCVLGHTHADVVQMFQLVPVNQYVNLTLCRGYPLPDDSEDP

NHERF3_3, Q5T2W1 = biological target: T7, NHERF3_3, Q5T2W1
T7 sequence (Q5T2W1 238-333, limits assumed, looked up): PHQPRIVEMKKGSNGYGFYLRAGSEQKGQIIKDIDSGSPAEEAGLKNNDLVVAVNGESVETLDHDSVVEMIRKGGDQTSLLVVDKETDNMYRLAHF

RHPN1, Q8TCX5 = biological target: T8, RHPN1, Q8TCX5
T8 sequence (Q8TCX5 508-602, limits assumed, looked up): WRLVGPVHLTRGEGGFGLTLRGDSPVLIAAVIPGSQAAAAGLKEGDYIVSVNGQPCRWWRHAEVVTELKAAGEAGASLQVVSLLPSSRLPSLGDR

SCRIB_1, Q14160 = biological target: SCRIB_1, Q14160
Chain of SCRIB_1, Q14160 (Q14160 718-814): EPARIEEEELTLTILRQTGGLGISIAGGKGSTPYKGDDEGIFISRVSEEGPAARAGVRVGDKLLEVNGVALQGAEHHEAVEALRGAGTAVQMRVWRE

SNTA1, Q13424 = biological target: T9, SNTA1, Q13424
T9 sequence (Q13424 82-180, limits assumed, looked up): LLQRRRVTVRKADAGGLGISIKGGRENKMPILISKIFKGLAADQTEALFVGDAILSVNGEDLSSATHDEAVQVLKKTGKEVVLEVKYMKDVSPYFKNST

SNTB1, Q13884 = biological target: T10, SNTB1, Q13884
T10 sequence (Q13884 107-205, limits assumed, looked up): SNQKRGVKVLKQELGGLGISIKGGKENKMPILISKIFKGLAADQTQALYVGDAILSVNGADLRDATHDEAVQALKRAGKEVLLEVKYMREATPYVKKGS

SNX27, Q96L92 = biological target: SNX27, Q96L92
TIAM2, Q8IVF5 = biological target: T11, TIAM2, Q8IVF5
T11 sequence (Q8IVF5 885-986, limits assumed, looked up): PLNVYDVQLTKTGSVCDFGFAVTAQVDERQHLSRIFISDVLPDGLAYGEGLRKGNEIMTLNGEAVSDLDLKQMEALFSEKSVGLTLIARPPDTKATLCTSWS

[1] = plain residues with an end cap or a label only (N-terminal biotin on a linker: ado-ado)
[2] = plain residues with an end cap or a label only (N-terminal biotin on a linker: (peg)3)

Binder: PPGKHLVTEV [KCNA7, Q96RP8]
- pKd (CARD11, Q9BXL7; [1]): below the threshold
- pKd (DFNB31_3, Q9P202; [1]): 4.01
- pKd (DLG1_3, Q12959; [1]): 4.09
- pKd (DLG2_3, Q15700; [1]): 4.71
- pKd (FRMPD2_3, Q68DX3; [1]): below the threshold
- pKd (GOPC, Q9HD26; [1]): 3.68
- pKd (GORASP1, Q9BQQ3; [1]): below the threshold
- pKd (GRASP, Q7Z6J2; [1]): 4.6
- pKd (GRIP1_4, Q9Y3R0; [1]): below the threshold
- pKd (GRIP1_7, Q9Y3R0; [1]): below the threshold
- pKd (GRIP2_4, Q9C0E4; [1]): below the threshold
- pKd (GRIP2_6, Q9C0E4; [1]): below the threshold
- pKd (HTRA3, P83110; [1]): below the threshold
- pKd (IL16_3, Q14005; [1]): below the threshold
- pKd (Inadl_10, Q8NI35; [1]): 3.7
- pKd (Inadl_2, Q8NI35; [1]): below the threshold
- pKd (Inadl_6, Q8NI35; [1]): 3.56
- pKd (LRRC7, Q96NW7; [1]): 3.96
- pKd (MAGI3_2, Q5TCQ9; [1]): 4.71
- pKd (NHERF3_3, Q5T2W1; [1]): below the threshold
- pKd (RHPN1, Q8TCX5; [1]): 4.37
- pKd (SCRIB_1, Q14160; [1]): 4.72
- pKd (SNTA1, Q13424; [1]): 3.95
- pKd (SNTB1, Q13884; [1]): 4.32
- pKd (SNX27, Q96L92; [1]): 4.95
- pKd (TIAM2, Q8IVF5; [1]): 4.01

Binder: EDPRVEVTQF [SLC22A9, Q8IVM8]
- pKd (CARD11, Q9BXL7; [1]): below the threshold
- pKd (DFNB31_3, Q9P202; [1]): 3.84
- pKd (DLG1_3, Q12959; [1]): below the threshold
- pKd (DLG2_3, Q15700; [1]): 3.71
- pKd (FRMPD2_3, Q68DX3; [1]): below the threshold
- pKd (GOPC, Q9HD26; [1]): below the threshold
- pKd (GORASP1, Q9BQQ3; [1]): below the threshold
- pKd (GRASP, Q7Z6J2; [1]): 5.02
- pKd (GRIP1_4, Q9Y3R0; [1]): below the threshold
- pKd (GRIP1_7, Q9Y3R0; [1]): below the threshold
- pKd (GRIP2_4, Q9C0E4; [1]): below the threshold
- pKd (GRIP2_6, Q9C0E4; [1]): below the threshold
- pKd (HTRA3, P83110; [1]): below the threshold
- pKd (IL16_3, Q14005; [1]): below the threshold
- pKd (Inadl_10, Q8NI35; [1]): below the threshold
- pKd (Inadl_2, Q8NI35; [1]): below the threshold
- pKd (Inadl_6, Q8NI35; [1]): below the threshold
- pKd (LRRC7, Q96NW7; [1]): below the threshold
- pKd (MAGI3_2, Q5TCQ9; [1]): below the threshold
- pKd (NHERF3_3, Q5T2W1; [1]): below the threshold
- pKd (RHPN1, Q8TCX5; [1]): 4.4
- pKd (SCRIB_1, Q14160; [1]): 3.91
- pKd (SNTA1, Q13424; [1]): below the threshold
- pKd (SNTB1, Q13884; [1]): below the threshold
- pKd (SNX27, Q96L92; [1]): 5.39
- pKd (TIAM2, Q8IVF5; [1]): 4.15

Binder: ELSATVTTDC [TRIP6, Q15654]
- pKd (CARD11, Q9BXL7; [1]): below the threshold
- pKd (DFNB31_3, Q9P202; [1]): 3.62
- pKd (DLG1_3, Q12959; [1]): 4.02
- pKd (DLG2_3, Q15700; [1]): 3.57
- pKd (FRMPD2_3, Q68DX3; [1]): below the threshold
- pKd (GOPC, Q9HD26; [1]): below the threshold
- pKd (GORASP1, Q9BQQ3; [1]): below the threshold
- pKd (GRASP, Q7Z6J2; [1]): 3.54
- pKd (GRIP1_4, Q9Y3R0; [1]): below the threshold
- pKd (GRIP1_7, Q9Y3R0; [1]): below the threshold
- pKd (GRIP2_4, Q9C0E4; [1]): below the threshold
- pKd (GRIP2_6, Q9C0E4; [1]): below the threshold
- pKd (HTRA3, P83110; [1]): 4.04
- pKd (IL16_3, Q14005; [1]): 3.59
- pKd (Inadl_10, Q8NI35; [1]): below the threshold
- pKd (Inadl_2, Q8NI35; [1]): below the threshold
- pKd (Inadl_6, Q8NI35; [1]): below the threshold
- pKd (LRRC7, Q96NW7; [1]): below the threshold
- pKd (MAGI3_2, Q5TCQ9; [1]): below the threshold
- pKd (NHERF3_3, Q5T2W1; [1]): 3.87
- pKd (RHPN1, Q8TCX5; [1]): 4.32
- pKd (SCRIB_1, Q14160; [1]): 4.48
- pKd (SNTA1, Q13424; [1]): 3.92
- pKd (SNTB1, Q13884; [1]): 4.34
- pKd (SNX27, Q96L92; [1]): 4.57
- pKd (TIAM2, Q8IVF5; [1]): below the threshold

Binder: QQSMSSADSTQA [SARS-Cov2-N, P0DTC9]
- pKd (CARD11, Q9BXL7; [2]): below the threshold
- pKd (DFNB31_3, Q9P202; [2]): below the threshold
- pKd (DLG1_3, Q12959; [2]): below the threshold
- pKd (DLG2_3, Q15700; [2]): below the threshold
- pKd (FRMPD2_3, Q68DX3; [2]): below the threshold
- pKd (GOPC, Q9HD26; [2]): below the threshold
- pKd (GORASP1, Q9BQQ3; [2]): below the threshold
- pKd (GRASP, Q7Z6J2; [2]): below the threshold
- pKd (GRIP1_4, Q9Y3R0; [2]): below the threshold
- pKd (GRIP1_7, Q9Y3R0; [2]): below the threshold
- pKd (GRIP2_4, Q9C0E4; [2]): below the threshold
- pKd (GRIP2_6, Q9C0E4; [2]): below the threshold
- pKd (HTRA3, P83110; [2]): below the threshold
- pKd (IL16_3, Q14005; [2]): below the threshold
- pKd (Inadl_10, Q8NI35; [2]): below the threshold
- pKd (Inadl_2, Q8NI35; [2]): below the threshold
- pKd (Inadl_6, Q8NI35; [2]): below the threshold
- pKd (LRRC7, Q96NW7; [2]): below the threshold
- pKd (MAGI3_2, Q5TCQ9; [2]): below the threshold
- pKd (NHERF3_3, Q5T2W1; [2]): below the threshold
- pKd (RHPN1, Q8TCX5; [2]): below the threshold
- pKd (SCRIB_1, Q14160; [2]): below the threshold
- pKd (SNTA1, Q13424; [2]): below the threshold
- pKd (SNTB1, Q13884; [2]): below the threshold
- pKd (SNX27, Q96L92; [2]): below the threshold
- pKd (TIAM2, Q8IVF5; [2]): below the threshold

Binder: DDASLPVSDV [PLEKHA1, Q9HB21]
- pKd (CARD11, Q9BXL7; [1]): below the threshold
- pKd (DFNB31_3, Q9P202; [1]): 4.54
- pKd (DLG1_3, Q12959; [1]): below the threshold
- pKd (DLG2_3, Q15700; [1]): below the threshold
- pKd (FRMPD2_3, Q68DX3; [1]): below the threshold
- pKd (GOPC, Q9HD26; [1]): 4.25
- pKd (GORASP1, Q9BQQ3; [1]): below the threshold
- pKd (GRASP, Q7Z6J2; [1]): 3.65
- pKd (GRIP1_4, Q9Y3R0; [1]): below the threshold
- pKd (GRIP1_7, Q9Y3R0; [1]): below the threshold
- pKd (GRIP2_4, Q9C0E4; [1]): below the threshold
- pKd (GRIP2_6, Q9C0E4; [1]): below the threshold
- pKd (HTRA3, P83110; [1]): below the threshold
- pKd (IL16_3, Q14005; [1]): below the threshold
- pKd (Inadl_10, Q8NI35; [1]): below the threshold
- pKd (Inadl_2, Q8NI35; [1]): below the threshold
- pKd (Inadl_6, Q8NI35; [1]): 3.65
- pKd (LRRC7, Q96NW7; [1]): below the threshold
- pKd (MAGI3_2, Q5TCQ9; [1]): below the threshold
- pKd (NHERF3_3, Q5T2W1; [1]): below the threshold
- pKd (RHPN1, Q8TCX5; [1]): 4.46
- pKd (SCRIB_1, Q14160; [1]): below the threshold
- pKd (SNTA1, Q13424; [1]): 4.44
- pKd (SNTB1, Q13884; [1]): 4.59
- pKd (SNX27, Q96L92; [1]): below the threshold
- pKd (TIAM2, Q8IVF5; [1]): below the threshold
